# Test: soluble on expression in E. coli; label from the status in PepcDB or PDB records
row,Sequence,soluble on expression in E. coli
1,MGSDKIHHHHHHMFRILTINPGSTSTKLSIFEDERMVKMQNFSHSPDELGRFQKILDQLEFREKIARQFVEETGYSLSSFSAFVSRGGLLDPIPGGVYLVDGLMIKTLKSGKNGEHASNLGAIIAHRFSSETGVPAYVVDPVVVDEMEDVARVSGHPNYQRKSIFHALNQKTVAKEVARMMNKRYEEMNLVVAHMGGGISIAAHRKGRVIDVNNALDGDGPFTPERSGTLPLTQLVDLCFSGKFTYEEMKKRIVGNGGLVAYLGTSDAREVVRRIKQGDEWAKRVYRAMAYQIAKWIGKMAAVLKGEVDFIVLTGGLAHEKEFLVPWITKRVSFIAPVLVFPGSNEEKALALSALRVLRGEEKPKNYSEESRRWRERYDSYLDGILR,not soluble
2,MGSDKIHHHHHHMLNLEQLNAFIAAVEKGSFSAAARHIGKSQSSVSIGVNNLELDLGVELFDRSTKYPQLTEQGERLYHQAKALMRQATRMESYAKGVIEAVEDQLVIGADPLVPMSVFDSALEKMAEKFPFTRVKLVKLTGNHLNRAIEADEVDVGFNIMSEAVPENLDFIGIARIEWVCICSPDYKFADLEAVDSEMLINERQIVCSSMLQNEYLAKLGRVSQETWEASDLDDMIRLVEQGIGWGIIPLSMYEEKAAIGTLSTFKPVIEKETGLITVDLLWKSTAQLGPAKSFFIDLLKR,not soluble
3,MRIEVTIAKTSPLPAGAIDALAGELSRRIQYAFPDNEGHVSVRYAAANNLSVIGATKEDKQRISEILQETWESADDWFVSE,soluble
4,AWKGEVLANNEAGQVTSIIYNPGDVITIVAAGWASYGPTQKWGPQGDREHPDQGLICHDAFCGALVMKIGNSGTIPVNTGLFRWVAPNNVQGAITLIYNDVPGTYGNNSGSFSVNIGKDQS,soluble
5,PTGNNAEICLLPLDYGPCRALLLRYYYDRYTQSCRQFLYGGCEGNANNFYTWEACDDACWRIE,soluble
6,MSLAFNVAFRLDAGAEIGLGHLMRCLAIADRLRAAGAECHFLCHDLPAHLLPLLHAHHHHSLTTQDDAGPLPSLQPDWLVFDHYQIDHVVEQELAVHCDQLLVIDDLADRPHYCQLLLDQGPLRTAADYQPLIPADCRLLLGTDYALLRPAYRQLARQQTSQWQGGLICFGGADPAGACLTTLNSLACLPWPRTIQWTLVAGGANPFWPELEQRVAELPELKITLLRQSDQMAQLMNQHDFTIGAAGGMTWERACLGLPTLAVPIVDNQEGHHHHHH,not soluble
7,MASAVGEKMLDDFEGVLNWGSYSGEGAKVSTKIVSGKTGNGMEVSYTGTTDGYWGTVYSLPDGDWSKWLKISFDIKSVDGSANEIRFMIAEKSINGVGDGEHWVYSITPDSSWKTIEIPFSSFRRRLDYQPPGQDMSGTLDLDNIDSIHFMYANNKSGKFVVDNIKLIGALEHHHHHH,soluble
8,MPSTNLTKRDWEKDHVYLVQFPRAGCIPSPSPYAFKVETFLRVADIPYTNINNEFKKMSARGQIPFIELNGRQHADSTIIIDNLTEHFHKSDLEDLSASDKAIARAFFALLEHHLCWVSLYSRGQDFGWLATDTGFGRLLTGIKGFAFKNFIVKSFTKKVRGRAAAQGMGTFSREEVLDQAKKDLDAISTQLGDKPYLFGSSIKTIDVTAFAHLAELIYTPQFSPEIRAYIDEKVPNVMEYVIRIKEKYWPDWEETTNTMNMATVWKKA,not soluble
9,MYEYCRKRGLYPDAESYPWKSNAHYWLVTNLYQNMRANALADAELRRKAADELTCMTARINRGETIPEPVKQLPVMGGRPLNRAQALAKIAEIKAKFGLKGASVLEHHHHHH,not soluble
10,MGSDKIHHHHHHMETDMPADMIQPLCEIDDLRIGFHGHDGALTEAVRGLSLTLHRGERLGIVGESGSGKSLTGRALLGLLPPAAQYRAKAMTFDGQDLLSMSARKRRQLCGQQMGMILQDPKYSLNPVMTVAQQMREVFDLHGPKLGRREMREQIIAALAAVHIRNPERVADAYPHELSGGMGQRVMIAMMVSSGPRLLVADEPTSALDVLVSMQVLGILDEMIEKHHTGLIFISHDLPLVMSFCDRVVVMFAGRVVETCAARDLVHARHPYTRGLLAASPPLIDPPDQLPVLKPDPAWLTQPAGASA,not soluble
11,MSLRTKSWTDDLKVCNQTGVGEAINQIYKDDGRRCEGYESRDKKCLCISDNNTSLYAILSGHNGVTVAENALQEMAAELLLGQLNVCNTDEAVKELIRQSFMSVEKGYFDSINPHVATKTAIQLHLSADGMNQYEISQQFENVLQKLDSLNNALSVGSSAVLALIHRSHLYLGNIGNCRALLCKTDEHDTLTVTQLSVDHNLLNAEEAARLFRLGLMAQNFEGVPLYSTRCIGNYLGKAGYKDCNFLSSATAEPVIFEPEIVGGIQITPACRFLVLMSSGLCRALHEIFPGDASTGNRELVRMISEEFQNQSTLGGVAQSVVHRIVQAHHDTYMQLVEEHRSVTFNSRDDVTLLIRNFNYAEGHHHHHH,soluble
12,MTVSDRELEECIRALLDARADSASICPSDVARAVAPDDWRPLMEPVREAAGRLADAGEVEVTQKGAVVDPRSARGPIRIRWTRTD,soluble
13,MSLSELIDNRAQRVRTLKGIIKRLHAGDAPDEVRNSLKELVCQTDYSEVMAMEQELIADGMPVEEIQGMCDLHSQVTREVLVQLAPAPVPPGHPVDTFRRENKALRESAARLQKAMNGVLETADDGDASARLLEWRQALNELQDVDKHYQRKEHLLSTCLERHGITGPSKVMWGKDDQIRELLKDTSVALRQSDTSVAELKVLAATTGAAAAGAVHEMIYKEEQILLPICLERFTADEWAEIWASSPRYGWCLVEPRQGYKPFTSEAAGRASVDGGVSLPTGALALEQLIAIFSTLPVDLTFVDANDRVAFFSEGPSRVFARSRTIVGRMVQNCHPPRSVDVVERILSDFREGRQNVAEFWLQFVGRFVHIRYFAVRSEDGRYLGTLEVTQDVGPIRALEGERRLLEYAEPSEGHHHHHH,soluble
14,GPGSMSLKVNILGHEFSNPFMNAAGVLCTTEEDLRRMTESESGSLIGKSCTLAPRTGNPEPRYFGLPLGSINSMGLPNLGVDFYLSYAAQTHDYSRKPLFLSMSGLSVEESVEMVKKLAPITKEKGTILELNLSCPNVPGKPQVGYDFDTTRTYLQKVSEAYGLPFGVKMPPYFDIAHFDMAAAVLNDFPLVKFITCVNSIGNGLVIDPANETVVIKPKQGFGGLGGKYVLPTALANVNAFFRRCPDKLVFGCGGVYSGEEAFLHILAGASMVQVGTALHDEGPIIFARLNKELQEIMTNKGYKTLDEFRGRVKTMD,soluble
15,MSLTREVGQRREAEETAHKLAHTDPLTGCLNRRSMGPAVEQMVSTARTSGHEVVVMMMDLDNFKRSNDVHGHQAGDAVLLHTADRIRAILPAGSIIARLGGDEFACAAIFDPDHVESIDRLILRMNEAVAMPVRVDGLMLEVTASIGLAATSAADAGAPPALADTLLHRADLAMYQAKKAGRNRYCWFEQNMESELRFRSELEREIREGVARGEFVPYYEKQIDLETGELTGFEMLARWRSPRHGLLSPEIFIPIAEEIGLISELSENLIRQALRDARDWDPTLTLSVNISPIQLRDPWFAQKLLKLLVEANFPPHRLDIEITETCLHENVGVVRTLITSLKNQGIRISLDDFGTGYSSLAQLRTLPFDQIKIDRFFVSNLGKNKDSATIVEAISSLGKGMDLPITAEGIESPEVLDELRKFGKFKGQGFLYGQPGDASEIRAMLADRQLLQQQAEGHHHHHH,soluble
16,MSLRLNDWQLAFEAYLLGEQAQARAVLQDSLIGGPTLDVETGLAIYHNAYMARLQEVMGSDFPAIRHWLGDAEFQALTQAYIRQCPSRHFSLRWLGQGFAEFILGHLVPEQGAPLAELARLEWAFTLAFDAADAQVLTVAAMAGLDVEQWPQLQLRLAPCVQWLDCRYNSVAQWRAVKEQADFPRSALLDQQQLCLVWRADRVCRYRSLPAEEATALRGMIEQRWNFAELCVGLAVTYAEGAPLQAVTWLKQWVEDGLVMRSESEGHHHHHH,not soluble
17,MKCVVCGRNEAVEHGMCSSCIYDNTNVENIGPVSLVFCPKCGSIRIGKKWYRDSYGNKLLPMLLDEVKCSDVNARISGDEKGIFFDEKNKQIILPVTIKRSNMKDKIQNVAIPYSVTYISCPTCNKITGSYFEATIQLRTVSTKYDNILESVLESIEAIVEKRKKEDAESFISKVEKKPEGIDIYLGKRTDGDVVSSFVLDHFFSSIIVTKTLAGVKDGKKFFRFTYSLRILDAKEGSLEHHHHHH,not soluble
18,AQELQTANEFTVHTDLSSISSTRAFLKEKHKAAKHIGVRADIPFDANQGIRLEAGFGRSKKNIINLETDENKLGKTKNVKLPTGVPENRIDLYTGYTYTQTLSDSLNFRVGAGLGFESSKDSIKTTKHTLHSSRQSWLAKVHADLLSQLGNGWYINPWSEVKFDLNSRYKLNTGVTNLKKDINQKTNGWGFGLGANIGKKLGESASIEAGPFYKQRTYKESGEFSVTTKSGDVSLTIPKTSIREYGLRVGIKF,soluble
19,MSSNTTEHGEHFNESIVNEVILEDMKKNRIDHMKYLPGMETMEESDVMEQVITAMNAYDYDKYTEKDVRRALEHDNRTVEDFQALLSPAALPLLEEIAQAARVETRKHFGNSVYMFTPIYIANYCENYCIYCGFNCHNKIRRAQLNAEEIDKEMAAIAKTGLQEILILTGESRIKSDVKYIGEACKIARKYFKVIGLEVYPMNSDEYHYLHECGADYVTVFQETYNSDKYETLHLAGHKRIFPYRLNAQERALKGGMRGVGFAALLGLDDFRKDAFATGYHAWLLQRKYPHAEIAFSCPRLRPIINNDRINPMDVHEPQLLQVVCAYRLFMPFASITVSTRECERVRDNLVNIAATKISAGVSTGIGSHVEDIEDKGDDQFEISDGRSVDEVYQALLNHDLQPVMNDYVYL,not soluble
20,MALSANSDAVTYAKAANTRTAAETGDRIEWVKLSLAFLPLATPVSDAKVLTGRQKPLTEVAIIIAEIRSRDGFEGVGFSYSKRAGGQGIYAHAKEIADNLLGEDPNDIDKIYTKLLWAGASVGRSGMAVQAISPIDIALWDMKAKRAGLPLAKLLGAHRDSVQCYNTSGGFLHTPLDQVLKNVVISRENGIGGIKLAVGQPNCAEDIRRLTAVREALGDEFPLMVDANQQWDRETAIRMGRKMEQFNLIWIEEPLDAYDIEGHAQLAAALDTPIATGEMLTSFREHEQLILGNASDFVQPDAPRVGGISPFLKIMDLAAKHGRKLAPHFAMEVHLHLSAAYPLEPWLEHFEWLNPLFNEQLELRDGRMWISDRHGLGFTLSEQARRWTQLTCEFGKRP,soluble
21,MVAIFDICAYFNNSILVIVDIIMTELLEPAARASTQETLTDQIFKKIQSAIVSGEIAAGSKISEPELARVYGISRGPLREAIHRLEGQKLVERTAHVGARVVSLSHQQLRELYQIRENLEGLACRLAAQSIDKQQILNLRDVLHLHAQDPDFKEGKGYYLQEGQDDFHYCIIKNCGNKTLEKMLCDELYHLIRMYRVQYSKTPNRPHRALSEHLHILNAIAEGDTELAELLMRRHIAASYRNIEQHFI,not soluble
22,GPGSMEETVEHHFVEPNNISHMERHTAYATGPLDIDGGSSDSNCVLTAPSMTVTTSADGSSFVQLTEEDMQLMPEEQSISGGSYDETRTPESVNVVNS,not soluble
23,MGSDKIHHHHHHMKVDYHIHLEEGPYSIGWLAKINESLQHYEPLKEEKHSMEWLVKIQERLQRRVNEGPFTTKWIDLYLEEALRKGIKEVGIVDHLYRFYEAKEYYEKYVDISDSGLGRLQKEWLDQVRVASLHDFTKAIEEAKERWSKRGVTLKLGIEADYFIGGEQQLQSLLALGDFDYVIGSVHFLNGWGFDNPDTKEYFKEHDLYALYDTFFKTVECAVRSELFDIIAHLDNIKVFNYRLDENEQISYYKKIARALVETNTATEINAGLYYRYPVREMCPSPLYLQVLAKHEVPITLSSDAHYPNDLGKYVEENIKTLRNHDIAHLATFTKRVRTMRLLEEVTISK,not soluble

# From the DeepSol protein solubility set
